One series concerns the target T1, GST-ABF1 (Oryza sativa L. ssp. japonica cv …, UniProt Q0JHF1 1-266).
T1 sequence: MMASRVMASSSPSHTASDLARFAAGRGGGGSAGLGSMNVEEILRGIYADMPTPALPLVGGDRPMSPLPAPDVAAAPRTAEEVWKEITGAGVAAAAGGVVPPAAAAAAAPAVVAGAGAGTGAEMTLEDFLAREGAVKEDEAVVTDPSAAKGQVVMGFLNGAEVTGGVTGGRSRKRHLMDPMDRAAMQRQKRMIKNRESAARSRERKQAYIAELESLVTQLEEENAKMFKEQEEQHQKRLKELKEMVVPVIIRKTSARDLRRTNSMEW
The series is described as follows: EMSA; binding lost with unlabeled probe; EMSA/gel-shift binding buffer (composition, pH and temperature not stated); 20 fmol biotin-labeled probe; 6% acrylamide gel. The following applies: protein: recombinant; tags: N-terminal GST (pGEX-4T-1); chain copies: 2; label: biotin; blunt. In general terms: A gel shift assay detects complexes by their altered migration in electrophoresis.

Another series deals with T2, His-SAPK10 (rice (Oryza sativa L.), UniProt Q75H77 1-362).
T2 construct: SAPK10, SnRK2-type Ser/Thr protein kinase of rice; the CDS was fused into pET-28a; source: E. coli Transetta (DE3), purified (6x His-Tagged Protein Purification Kit); not shown: His, N-terminal, kept
T2 sequence (looked up): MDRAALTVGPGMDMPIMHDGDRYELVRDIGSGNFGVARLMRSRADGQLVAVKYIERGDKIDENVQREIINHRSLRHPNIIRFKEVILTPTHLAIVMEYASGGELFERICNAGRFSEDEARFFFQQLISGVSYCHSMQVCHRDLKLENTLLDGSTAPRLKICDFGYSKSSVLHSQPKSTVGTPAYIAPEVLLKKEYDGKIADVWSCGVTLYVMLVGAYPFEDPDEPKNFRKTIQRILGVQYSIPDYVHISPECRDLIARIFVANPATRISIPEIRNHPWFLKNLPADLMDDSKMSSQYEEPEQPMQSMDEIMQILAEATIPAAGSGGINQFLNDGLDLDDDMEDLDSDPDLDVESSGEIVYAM
In words: pull-down; GST pull-down on glutathione magnetic agarose beads; 50 mM Tris-HCl pH 7.5, 5% glycerol, 1 mM EDTA, 1 mM DTT, 1 mM PMSF, 0.01% Nonidet P-40, 150 mM KCl; 4 °C for 2 h; blots with anti-His and anti-GST. The note with it: both partners purified.

B1: TPS2 promoter probe (P3, G-box) (dsDNA)
DNA 1: CAGACCTGACGTCAGACGACGATTAGCCACGTGGCACACAGTGCACCCGACACGACGAA
DNA 2: TTCGTCGTGTCGGGTGCACTGTGTGCCACGTGGCTAATCGTCGTCTGACGTCAGGTCTG
In the case of B1, the binding result in the series with GST-ABF1 is recorded as “binds”.

B2: GST-ABF1 (natural protein, rice (Oryza sativa L.), UniProt Q0JHF1 1-266, looked up)
chain: T1 sequence
notes: ABF1 (bZIP12), bZIP transcription factor of rice; the CDS was fused into pGEX-4T-1; also called bZIP12; source: E. coli Transetta (DE3), purified (GST-Sefinose Kit); not shown: GST, N-terminal, kept
Take B2: the binding result with His-SAPK10 is recorded as “binds”.

For the origin of these results see paper PMC10342119, “ABF1 Positively Regulates Rice Chilling Tolerance via Inducing Trehalose Biosynthesis” (International Journal of Molecular Sciences, 2023).
